Laboratory results reported in patent US20140221623A1 (Ablynx, published 2014).

T1: Human soluble IL6-R (human, UniProt P08887 20-358)
T1 construct: Bought soluble receptor; biotinylated in some Alphascreen assays; also called sIL6-R; hIL-6R
T1 sequence (looked up): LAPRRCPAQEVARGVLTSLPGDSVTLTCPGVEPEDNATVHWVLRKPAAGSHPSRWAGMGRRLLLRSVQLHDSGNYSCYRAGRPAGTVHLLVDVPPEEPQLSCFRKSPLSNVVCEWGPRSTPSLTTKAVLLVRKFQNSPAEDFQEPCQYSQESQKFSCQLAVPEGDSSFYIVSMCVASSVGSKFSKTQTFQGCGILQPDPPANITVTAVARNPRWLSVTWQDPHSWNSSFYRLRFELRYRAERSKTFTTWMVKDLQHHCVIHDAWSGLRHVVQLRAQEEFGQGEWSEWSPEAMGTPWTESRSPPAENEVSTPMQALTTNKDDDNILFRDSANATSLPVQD

B1: PMP 30 A10 (VHH)
VHH: EVQLVESGGGLVQPGGSLRLSCAASGFTFDDYGMSWVRQAPGKGLEWVSAISWNGGSTYYTESMKGRFTISRDNAKNTVYLQMNSLKPEDTAVYYCVKGSTAIVGVPPTYPDEYDYWGQGTQVTVSS
notes: also called PMP30A10(t)
B2: PMP 33 C10 (VHH)
VHH: EVQLVESGGGLVQPGGSLRLSCAASGFTFDDYGMSWVRQAPGKGLEWVSAISWNGGSTYYTESMKGRFTISRDNAKNTVYLQMNSLKPEDTAVYYCVKGSTAIVGVPPTYPDEYDYWGQGTQVTVSS
notes: also called PMP33C10(t)
B3: PMP 33 A2 (VHH)
VHH: EVQLVESGGGLVQPGGSLRLSCAASGFSLDYYAIGWFRQAPGKEREGVSCMDSSGGTTSTYYSDSVKGRFTISRDDAKNTVYLQMNSLKPEDTAVYYCAADGHLNWGQRYVPCSQISWRGWNDYWGQGTQVTVSS
notes: also called PMP33A2(t)
B4: PMP 34 F8 (VHH)
VHH: EVQLVESGGGLVQPGGSLRLSCAASGFSLDYYAIGWFRQAPGKEREGVSCMDSSDGTTNTYYSDSVKGRFTISRDDAKNTVYLQMNSLKPEDTASYYCAADGHLNWGQPYVPCSQISWRGWNDYWGQGTQVTVSS
notes: also called PMP34F8(t)
B5: PMP 31 C5 (VHH)
VHH: EVQLVESGGGLVQAGGSLRLSCAASGFTFDDYAIGWFRQAPGKEREGVSCISSSDGSTYYADSVKGRFTISSDNAKNTVYLLMNSLKPEDTAVYYCAAEPPDSMWSLDGSPEFFKFWGQGTQVTVSS
notes: also called PMP31C5(t)
B6: PMP 31 D2 (VHH)
VHH: EVQLVESGGGLVQAGGSLRLSCAASGFTFDDYAIGWFRQAPGKEREGVSGISSSDGNTYYADSVKGRFTISSDNAKNTVYLQMNSLKPEDTAVYYCAAEPPDSNWYLDGSPEFFKFWGQGTQVTVSS
notes: also called PMP31D2(t)
B7: PMP 32 F10 (VHH)
VHH: EVQLVESGGGLVQAGGSLRLSCAASGFTFDDYAIGWFRQAPGKEREGISCISSSDGSTYYADSVKGRFTISSDNAKNTVYLQMNSLKPEDTAVYYCAAEPPDSSWILDGSPEFFKFWGQGTQVTVSS
notes: also called PMP32F10(t)
B8: PMP 28 A2 (VHH)
VHH: EVQLVESGGGLVQPGGSLRLSCAASGFTFGSYDMSWVRQAPGKGPEWVSAINSGGGSTYYADSVKGRFTISRDNAKNTLYLQMNSLKPEDTAVYYCATDWRYSDYDLPLPPPGDYWGQGTQVTVSS
notes: also called PMP28A2(t)
B9: PMP 28 C7 (VHH)
VHH: EVQLVESGGGLVQPGGSLRLSCAASGFTFGSYDMSWVRQAPGKGPEWVSAINSGGDNTYYADSVKGRFTISRDNAKNTLYLQMNSLKPEDTAVYYCATDWRYSDYDLPLPPPGDYWGQGTQVTVSS
notes: also called PMP28C7(t)
B10: PMP 28 D4 (VHH)
VHH: EVQLVESGGGLVQPGGSLRLSCAASGFTFGSYDMSWVRQAPGKGPEWVSAINSGGGSTYYADSVKGRFTISRDNAKNTLYLQMNSLKPEDTAVYYCATDWRYSDYDLPLPPPGDYWGQGTQVTVSS
notes: also called PMP28D4(t)
B11: IL6R81 (VHH)
VHH: EVQLVESGGGLVQPGGSLRLSCAASGFTFDDYGMSWVRQAPGRATEWVSAISWNGNNTYYTESMKGRFTISRDNAKNTVYLQMNSLRPEDTAVYYCVKGSTAIVGVPPTYPDEYDYWGQGTLVTVSS
notes: Humanized variant of IL6R13
B12: IL6R82 (VHH)
VHH: EVQLVESGGGLVQPGGSLRLSCAASGFTFDDYGMSWVRQAPGKGLEWVSAISWNGNNTYYTESMKGRFTISRDNAKNTVYLQMNSLRPEDTAVYYCVKGSTAIVGVPPTYPDEYDYWGQGTLVTVSS
notes: Humanized variant of IL6R13
B13: IL6R83 (VHH)
VHH: EVQLVESGGGLVQPGGSLRLSCAASGFTFDDYGMSWVRQAPGRATEWVSAISWNGNNTYYTESMKGRFTISRDNAKNTLYLQMNSLRPEDTAVYYCVKGSTAIVGVPPTYPDEYDYWGQGTLVTVSS
notes: Humanized variant of IL6R13
B14: IL6R84 (VHH)
VHH: EVQLVESGGGLVQPGGSLRLSCAASGFTFDDYGMSWVRQAPGKGLEWVSAISWNGNNTYYTESMKGRFTISRDNAKNTLYLQMNSLRPEDTAVYYCVKGSTAIVGVPPTYPDEYDYWGQGTLVTVSS
notes: Humanized variant of IL6R13
B15: IL6R85 (VHH)
VHH: EVQLVESGGGLVQPGGSLRLSCAASGFTFDDYGMSWVRQAPGRGLEWVSAISWNGNNTYYTESMKGRFTISRDNAKNTLYLQMNSLRPEDTAVYYCVKGSTAIVGVPPTYPDEYDYWGQGTLVTVSS
notes: Humanized variant of IL6R13
B16: IL6R86 (VHH)
VHH: EVQLVESGGGLVQPGGSLRLSCAASGFTFDDYGMSWVRQAPGRALEWVSAISWNGNNTYYTESMKGRFTISRDNAKNTLYLQMNSLRPEDTAVYYCVKGSTAIVGVPPTYPDEYDYWGQGTLVTVSS
notes: Humanized variant of IL6R13
B17: IL6R87 (VHH)
VHH: EVQLVESGGGLVQPGGSLRLSCAASGFTFDDYGMSWVRQAPGKATEWVSAISWNGNNTYYTESMKGRFTISRDNAKNTLYLQMNSLRPEDTAVYYCVKGSTAIVGVPPTYPDEYDYWGQGTLVTVSS
notes: Humanized variant of IL6R13
B18: IL6R89 (VHH)
VHH: EVQLVESGGGLVQPGGSLRLSCAASGFTFDDYGMSWVRQAPGRGTEWVSAISWNGNNTYYTESMKGRFTISRDNAKNTLYLQMNSLRPEDTAVYYCVKGSTAIVGVPPTYPDEYDYWGQGTLVTVSS
notes: Humanized variant of IL6R13
B19: IL6R90 (VHH)
VHH: EVQLVESGGGLVQPGGSLRLSCAASGFTFDDYGMSWVRQAPGKALEWVSAISWNGNNTYYTESMKGRFTISRDNAKNTLYLQMNSLRPEDTAVYYCVKGSTAIVGVPPTYPDEYDYWGQGTLVTVSS
notes: Humanized variant of IL6R13
B20: IL6R71 (VHH)
VHH: EVQLVESGGGLVQPGGSLRLSCAASGFTFDDYDIGWFRQAPGKGREGVSGISSSDGNTYYADSVKGRFTISSDNAKNTVYLQMNSLRPEDTAVYYCAAEPPDSSWYLDGSPEFFKYWGQGTLVTVSS
notes: Humanized variant of IL6R04
B21: IL6R72 (VHH)
VHH: EVQLVESGGGLVQPGGSLRLSCAASGFTFSDYDIGWFRQAPGKGREGVSGISSSDGNTYYADSVKGRFTISSDNAKNTVYLQMNSLRPEDTAVYYCAAEPPDSSWYLDGSPEFFKYWGQGTLVTVSS
notes: Humanized variant of IL6R04
B22: IL6R73 (VHH)
VHH: EVQLVESGGGLVQPGGSLRLSCAASGFTFDDYDIGWFRQAPGKGREGVSGISSSDGNTYYADSVKGRFTISRDNAKNTVYLQMNSLRPEDTAVYYCAAEPPDSSWYLDGSPEFFKYWGQGTLVTVSS
notes: Humanized variant of IL6R04
B23: IL6R74 (VHH)
VHH: EVQLVESGGGLVQPGGSLRLSCAASGFTFDDYDIGWFRQAPGKGREGVSGISSSDGNTYYADSVKGRFTISSDNAKNTLYLQMNSLRPEDTAVYYCAAEPPDSSWYLDGSPEFFKYWGQGTLVTVSS
notes: Humanized variant of IL6R04
B24: IL6R75 (VHH)
VHH: EVQLVESGGGLVQPGGSLRLSCAASGFTFSDYDIGWFRQAPGKGREGVSGISSSDGNTYYADSVKGRFTISRDNAKNTLYLQMNSLRPEDTAVYYCAAEPPDSSWYLDGSPEFFKYWGQGTLVTVSS
notes: Humanized variant of IL6R04
B25: IL6R61 (VHH)
VHH: EVQLVESGGGLVQPGGSLRLSCAASGSIFKVNAMGWYRQAPGKGRELVAGIISGGSTNYADSVKGRLTISRDNAKNTVYLQMNSLRPEDTAVYYCSFVTTNSDYDLGRDYWGQGTLVTVSS
notes: Humanized variant of IL6R03
B26: IL6R62 (VHH)
VHH: EVQLVESGGGLVQPGGSLRLSCAASGSIFKVNAMGWYRQAPGKGRELVAGIISGGSTNYADSVKGRFTISRDNAKNTVYLQMNSLRPEDTAVYYCSFVTTNSDYDLGRDYWGQGTLVTVSS
notes: Humanized variant of IL6R03
B27: IL6R63 (VHH)
VHH: EVQLVESGGGLVQPGGSLRLSCAASGSIFKVNAMGWYRQAPGKGRELVAGIISGGSTNYADSVKGRLTISRDNAKNTLYLQMNSLRPEDTAVYYCSFVTTNSDYDLGRDYWGQGTLVTVSS
notes: Humanized variant of IL6R03
B28: IL6R64 (VHH)
VHH: EVQLVESGGGLVQPGGSLRLSCAASGSIFKVNAMGWYRQAPGKGRELVAGIISGGSTNYADSVKGRLTISRDNAKNTVYLQMNSLRPEDTAVYYCAFVTTNSDYDLGRDYWGQGTLVTVSS
notes: Humanized variant of IL6R03
B29: IL6R65 (VHH)
VHH: EVQLVESGGGLVQPGGSLRLSCAASGSIFKVNAMGWYRQAPGKGRELVAGIISGGSTNYADSVKGRFTISRDNAKNTLYLQMNSLRPEDTAVYYCAFVTTNSDYDLGRDYWGQGTLVTVSS
notes: Humanized variant of IL6R03

What follows are binders tested against T1, Human soluble IL6-R (assay: SPR (Biacore), off-rate).
B1 showed a koff of 0.00268 s⁻¹.
B2 gave a koff of 0.00308 s⁻¹.
For B3, the koff was 0.0005 s⁻¹.
In the case of B4, the koff is reported as 0.000142 s⁻¹.
Work on B5 yielded a koff of 0.000111 s⁻¹.
Binder B6 has a koff of 0.000281 s⁻¹.
With B7 the koff was 0.00058 s⁻¹.
B8 gave a koff of 0.00124 s⁻¹.
Binder B9 has a koff of 0.00131 s⁻¹.
B10 showed a koff of 0.00185 s⁻¹.

The binders below were run against T1, Human soluble IL6-R (assay: SPR (Biacore 3000), IL6-R on CM5 chip).
B11 showed a Kd of 400 pM, a koff of 0.000128 s⁻¹ and a kon of 320000 M⁻¹ s⁻¹.
With B12 the Kd was 5070 pM, the koff was 0.00314 s⁻¹ and the kon was 619000 M⁻¹ s⁻¹.
For B13, the Kd was 340 pM, the koff was 0.00012 s⁻¹ and the kon was 350000 M⁻¹ s⁻¹.
B14 showed a Kd of 5360 pM, a koff of 0.00409 s⁻¹ and a kon of 762000 M⁻¹ s⁻¹.
Work on B15 yielded a koff of 0.00206 s⁻¹.
For B16, the koff was 0.0017 s⁻¹.
B17 gave a koff of 0.000105 s⁻¹.
Binder B18 has a koff of 0.00019 s⁻¹.
With B19 the koff was 0.00192 s⁻¹.
B20 gave a Kd of 220 pM, a koff of 0.000153 s⁻¹ and a kon of 703000 M⁻¹ s⁻¹.
B21 was tested, and the Kd was 330 pM, the koff was 0.00018 s⁻¹ and the kon was 543000 M⁻¹ s⁻¹.
B22 was tested, and the Kd was 330 pM, the koff was 0.000233 s⁻¹ and the kon was 698000 M⁻¹ s⁻¹.
In the case of B23, the Kd is reported as 160 pM, the koff is reported as 0.000122 s⁻¹ and the kon is reported as 767000 M⁻¹ s⁻¹.
B24 gave a Kd of under 100 pM, a koff of under 0.0001 s⁻¹ and a kon of 1e+06 M⁻¹ s⁻¹.
Binder B25 has a Kd of 2000 pM, a koff of 0.0017 s⁻¹ and a kon of 850000 M⁻¹ s⁻¹.
B26 was tested, and the Kd was 2220 pM, the koff was 0.00207 s⁻¹ and the kon was 929000 M⁻¹ s⁻¹.
In the case of B27, the Kd is reported as 3690 pM, the koff is reported as 0.00365 s⁻¹ and the kon is reported as 990000 M⁻¹ s⁻¹.
Work on B28 yielded a koff of 0.001 s⁻¹.
With B29 the Kd was 4000 pM, the koff was 0.00235 s⁻¹ and the kon was 600000 M⁻¹ s⁻¹.
